Laboratory results as given in paper PMC7209288.

Legend:
[1] = target: human C5; assay: SPR; fit not_stated; antibody as IgG; antigen as monomer; on the surface: not_stated; avidity not_told; conditions: pH 7.4; second pH 6.0
[2] = target: Complement component C5 (human, wild type) (UniProt P01031); assay: SPR (Biacore T200, CM4 chip); conditions: pH 7.4, 37 °C, 150 mM NaCl, HBS-EP: 10 mM Hepes
[3] = target: Complement component C5 (human, wild type) (UniProt P01031); assay: SPR (Biacore); conditions: for t1/2 ratio pH7.4/pH6.0: pH 6.0-7.4, not stated (pH 7.4 and pH 6.0 compared); for KD / T1/2 (half-life of the complex): pH 7.4, 25 °C, not stated for this experiment (the 37 °C screen used 150 mM NaCl), not stated explicitly for the 25 °C runs, pH 7.4 (the 37 °C screen used HBS-EP: 10 mM Hepes)

UniProt P01031, sequence (P01031 whole entry): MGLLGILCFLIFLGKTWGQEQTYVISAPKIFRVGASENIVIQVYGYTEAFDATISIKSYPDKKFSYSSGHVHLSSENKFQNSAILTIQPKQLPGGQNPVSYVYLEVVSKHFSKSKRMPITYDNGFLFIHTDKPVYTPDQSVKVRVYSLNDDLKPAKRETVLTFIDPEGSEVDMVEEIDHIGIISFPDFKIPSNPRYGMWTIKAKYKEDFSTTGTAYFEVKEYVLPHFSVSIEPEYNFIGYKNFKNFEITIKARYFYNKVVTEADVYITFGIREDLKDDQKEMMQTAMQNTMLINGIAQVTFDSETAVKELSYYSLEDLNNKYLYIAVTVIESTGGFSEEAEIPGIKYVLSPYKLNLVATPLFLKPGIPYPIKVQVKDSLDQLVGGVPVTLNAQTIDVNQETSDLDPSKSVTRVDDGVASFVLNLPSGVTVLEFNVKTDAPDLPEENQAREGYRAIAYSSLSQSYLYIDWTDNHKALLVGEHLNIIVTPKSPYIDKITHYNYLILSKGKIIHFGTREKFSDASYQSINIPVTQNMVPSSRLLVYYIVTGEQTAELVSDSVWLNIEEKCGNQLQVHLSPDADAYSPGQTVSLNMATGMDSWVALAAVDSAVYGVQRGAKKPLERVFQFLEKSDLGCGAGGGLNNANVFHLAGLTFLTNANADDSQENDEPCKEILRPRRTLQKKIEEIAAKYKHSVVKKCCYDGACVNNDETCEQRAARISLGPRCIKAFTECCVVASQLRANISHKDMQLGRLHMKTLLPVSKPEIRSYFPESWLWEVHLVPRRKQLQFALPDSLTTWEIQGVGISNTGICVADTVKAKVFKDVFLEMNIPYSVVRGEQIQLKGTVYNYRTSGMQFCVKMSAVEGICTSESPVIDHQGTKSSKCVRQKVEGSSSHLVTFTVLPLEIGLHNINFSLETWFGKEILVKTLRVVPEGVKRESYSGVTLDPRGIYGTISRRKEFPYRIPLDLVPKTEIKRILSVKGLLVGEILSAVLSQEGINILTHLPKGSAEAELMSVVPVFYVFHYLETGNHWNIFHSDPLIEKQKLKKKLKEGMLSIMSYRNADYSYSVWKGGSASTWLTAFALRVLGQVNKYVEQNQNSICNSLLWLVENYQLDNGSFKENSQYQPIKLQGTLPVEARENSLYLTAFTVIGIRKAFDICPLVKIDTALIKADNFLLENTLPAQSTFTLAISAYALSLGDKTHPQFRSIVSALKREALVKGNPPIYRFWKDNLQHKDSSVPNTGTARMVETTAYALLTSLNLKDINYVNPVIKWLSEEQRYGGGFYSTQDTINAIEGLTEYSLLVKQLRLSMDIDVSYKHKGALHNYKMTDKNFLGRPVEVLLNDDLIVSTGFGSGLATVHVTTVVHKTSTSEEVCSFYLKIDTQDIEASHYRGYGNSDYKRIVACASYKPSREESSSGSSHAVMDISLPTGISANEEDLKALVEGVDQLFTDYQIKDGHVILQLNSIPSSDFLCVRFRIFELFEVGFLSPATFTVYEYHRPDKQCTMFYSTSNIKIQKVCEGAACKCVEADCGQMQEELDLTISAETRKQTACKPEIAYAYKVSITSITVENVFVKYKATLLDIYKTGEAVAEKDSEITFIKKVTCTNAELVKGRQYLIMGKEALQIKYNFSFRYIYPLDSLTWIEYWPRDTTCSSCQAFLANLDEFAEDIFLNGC

t1/2 ratio of binding hC5 at pH7.4/pH6.0 [1]	KD [2] [nM]	T1/2 (half-life of the complex) [2] [h]	KD [3] [nM]	T1/2 (half-life of the complex) [3] [h]	Substance	t1/2 ratio pH7.4/pH6.0 [3]
3.8	–	–	–	–	REGN3918	–
–	0.262	0.833	0.189	1.03	REGN3918 (pozelimab), anti-human C5 monoclonal antibody S228P (EU numbering, IgG4 hinge)	t1/2 ratio of binding hC5 at pH7.4/pH6.0 = 3.8
–	–	–	0.301	1.72	In-house eculizumab, anti-human C5 monoclonal antibody	t1/2 ratio of binding hC5 at pH7.4/pH6.0 = 5.2
5.2	–	–	–	–	In-house eculizumab	–
